Reference: patent US20210388087A1 (Chugai, published 2021)

B1: dBBDu183H K64S/dBBDu072L (antibody, name in Kabat numbering, V domains shown)
VH: QVQLVESGGGLVQPGRSLRLSCAASGFTFSNAWMHWVRQAPGKGLEWVAQIKDKGNAYAAYYAPSVSGRFTISRDDSKNSIYLQMNSLKTEDTAVYYCHYVHYASASTVLPAFGVDAWGQGTTVTVSS
VL: DIVMTQSPLSLPVTPGEPASISCQASQELVHMNRNTYLHWYQQKPGQAPRLLIYKVSNRFPGVPDRFSGSGSGTDFTLKISRVEAEDVGVYYCAQGTSVPFTFGQGTKLEIK
B2: dBBDu183H K64T/dBBDu072L (antibody, name in Kabat numbering, V domains shown)
VH: QVQLVESGGGLVQPGRSLRLSCAASGFTFSNAWMHWVRQAPGKGLEWVAQIKDKGNAYAAYYAPSVTGRFTISRDDSKNSIYLQMNSLKTEDTAVYYCHYVHYASASTVLPAFGVDAWGQGTTVTVSS
VL: DIVMTQSPLSLPVTPGEPASISCQASQELVHMNRNTYLHWYQQKPGQAPRLLIYKVSNRFPGVPDRFSGSGSGTDFTLKISRVEAEDVGVYYCAQGTSVPFTFGQGTKLEIK
B3: dBBDu183H K64V/dBBDu072L (antibody, name in Kabat numbering, V domains shown)
VH: QVQLVESGGGLVQPGRSLRLSCAASGFTFSNAWMHWVRQAPGKGLEWVAQIKDKGNAYAAYYAPSVVGRFTISRDDSKNSIYLQMNSLKTEDTAVYYCHYVHYASASTVLPAFGVDAWGQGTTVTVSS
VL: DIVMTQSPLSLPVTPGEPASISCQASQELVHMNRNTYLHWYQQKPGQAPRLLIYKVSNRFPGVPDRFSGSGSGTDFTLKISRVEAEDVGVYYCAQGTSVPFTFGQGTKLEIK
B4: dBBDu183H K64W/dBBDu072L (antibody, name in Kabat numbering, V domains shown)
VH: QVQLVESGGGLVQPGRSLRLSCAASGFTFSNAWMHWVRQAPGKGLEWVAQIKDKGNAYAAYYAPSVWGRFTISRDDSKNSIYLQMNSLKTEDTAVYYCHYVHYASASTVLPAFGVDAWGQGTTVTVSS
VL: DIVMTQSPLSLPVTPGEPASISCQASQELVHMNRNTYLHWYQQKPGQAPRLLIYKVSNRFPGVPDRFSGSGSGTDFTLKISRVEAEDVGVYYCAQGTSVPFTFGQGTKLEIK
B5: dBBDu183H K64Y/dBBDu072L (antibody, name in Kabat numbering, V domains shown)
VH: QVQLVESGGGLVQPGRSLRLSCAASGFTFSNAWMHWVRQAPGKGLEWVAQIKDKGNAYAAYYAPSVYGRFTISRDDSKNSIYLQMNSLKTEDTAVYYCHYVHYASASTVLPAFGVDAWGQGTTVTVSS
VL: DIVMTQSPLSLPVTPGEPASISCQASQELVHMNRNTYLHWYQQKPGQAPRLLIYKVSNRFPGVPDRFSGSGSGTDFTLKISRVEAEDVGVYYCAQGTSVPFTFGQGTKLEIK
B6: dBBDu183H L100dD/dBBDu072L (antibody, name in Kabat numbering, V domains shown)
VH: QVQLVESGGGLVQPGRSLRLSCAASGFTFSNAWMHWVRQAPGKGLEWVAQIKDKGNAYAAYYAPSVKGRFTISRDDSKNSIYLQMNSLKTEDTAVYYCHYVHYASASTVDPAFGVDAWGQGTTVTVSS
VL: DIVMTQSPLSLPVTPGEPASISCQASQELVHMNRNTYLHWYQQKPGQAPRLLIYKVSNRFPGVPDRFSGSGSGTDFTLKISRVEAEDVGVYYCAQGTSVPFTFGQGTKLEIK
B7: dBBDu183H L100dE/dBBDu072L (antibody, name in Kabat numbering, V domains shown)
VH: QVQLVESGGGLVQPGRSLRLSCAASGFTFSNAWMHWVRQAPGKGLEWVAQIKDKGNAYAAYYAPSVKGRFTISRDDSKNSIYLQMNSLKTEDTAVYYCHYVHYASASTVEPAFGVDAWGQGTTVTVSS
VL: DIVMTQSPLSLPVTPGEPASISCQASQELVHMNRNTYLHWYQQKPGQAPRLLIYKVSNRFPGVPDRFSGSGSGTDFTLKISRVEAEDVGVYYCAQGTSVPFTFGQGTKLEIK
B8: dBBDu183H L100dF/dBBDu072L (antibody, name in Kabat numbering, V domains shown)
VH: QVQLVESGGGLVQPGRSLRLSCAASGFTFSNAWMHWVRQAPGKGLEWVAQIKDKGNAYAAYYAPSVKGRFTISRDDSKNSIYLQMNSLKTEDTAVYYCHYVHYASASTVFPAFGVDAWGQGTTVTVSS
VL: DIVMTQSPLSLPVTPGEPASISCQASQELVHMNRNTYLHWYQQKPGQAPRLLIYKVSNRFPGVPDRFSGSGSGTDFTLKISRVEAEDVGVYYCAQGTSVPFTFGQGTKLEIK
B9: dBBDu183H L100dG/dBBDu072L (antibody, name in Kabat numbering, V domains shown)
VH: QVQLVESGGGLVQPGRSLRLSCAASGFTFSNAWMHWVRQAPGKGLEWVAQIKDKGNAYAAYYAPSVKGRFTISRDDSKNSIYLQMNSLKTEDTAVYYCHYVHYASASTVGPAFGVDAWGQGTTVTVSS
VL: DIVMTQSPLSLPVTPGEPASISCQASQELVHMNRNTYLHWYQQKPGQAPRLLIYKVSNRFPGVPDRFSGSGSGTDFTLKISRVEAEDVGVYYCAQGTSVPFTFGQGTKLEIK
B10: dBBDu183H L100dH/dBBDu072L (antibody, name in Kabat numbering, V domains shown)
VH: QVQLVESGGGLVQPGRSLRLSCAASGFTFSNAWMHWVRQAPGKGLEWVAQIKDKGNAYAAYYAPSVKGRFTISRDDSKNSIYLQMNSLKTEDTAVYYCHYVHYASASTVHPAFGVDAWGQGTTVTVSS
VL: DIVMTQSPLSLPVTPGEPASISCQASQELVHMNRNTYLHWYQQKPGQAPRLLIYKVSNRFPGVPDRFSGSGSGTDFTLKISRVEAEDVGVYYCAQGTSVPFTFGQGTKLEIK
B11: dBBDu183H L100dK/dBBDu072L (antibody, name in Kabat numbering, V domains shown)
VH: QVQLVESGGGLVQPGRSLRLSCAASGFTFSNAWMHWVRQAPGKGLEWVAQIKDKGNAYAAYYAPSVKGRFTISRDDSKNSIYLQMNSLKTEDTAVYYCHYVHYASASTVKPAFGVDAWGQGTTVTVSS
VL: DIVMTQSPLSLPVTPGEPASISCQASQELVHMNRNTYLHWYQQKPGQAPRLLIYKVSNRFPGVPDRFSGSGSGTDFTLKISRVEAEDVGVYYCAQGTSVPFTFGQGTKLEIK
B12: dBBDu183H L100dN/dBBDu072L (antibody, name in Kabat numbering, V domains shown)
VH: QVQLVESGGGLVQPGRSLRLSCAASGFTFSNAWMHWVRQAPGKGLEWVAQIKDKGNAYAAYYAPSVKGRFTISRDDSKNSIYLQMNSLKTEDTAVYYCHYVHYASASTVNPAFGVDAWGQGTTVTVSS
VL: DIVMTQSPLSLPVTPGEPASISCQASQELVHMNRNTYLHWYQQKPGQAPRLLIYKVSNRFPGVPDRFSGSGSGTDFTLKISRVEAEDVGVYYCAQGTSVPFTFGQGTKLEIK
B13: dBBDu183H L100dQ/dBBDu072L (antibody, name in Kabat numbering, V domains shown)
VH: QVQLVESGGGLVQPGRSLRLSCAASGFTFSNAWMHWVRQAPGKGLEWVAQIKDKGNAYAAYYAPSVKGRFTISRDDSKNSIYLQMNSLKTEDTAVYYCHYVHYASASTVQPAFGVDAWGQGTTVTVSS
VL: DIVMTQSPLSLPVTPGEPASISCQASQELVHMNRNTYLHWYQQKPGQAPRLLIYKVSNRFPGVPDRFSGSGSGTDFTLKISRVEAEDVGVYYCAQGTSVPFTFGQGTKLEIK
B14: dBBDu183H L100dR/dBBDu072L (antibody, name in Kabat numbering, V domains shown)
VH: QVQLVESGGGLVQPGRSLRLSCAASGFTFSNAWMHWVRQAPGKGLEWVAQIKDKGNAYAAYYAPSVKGRFTISRDDSKNSIYLQMNSLKTEDTAVYYCHYVHYASASTVRPAFGVDAWGQGTTVTVSS
VL: DIVMTQSPLSLPVTPGEPASISCQASQELVHMNRNTYLHWYQQKPGQAPRLLIYKVSNRFPGVPDRFSGSGSGTDFTLKISRVEAEDVGVYYCAQGTSVPFTFGQGTKLEIK
B15: dBBDu183H L100dS/dBBDu072L (antibody, name in Kabat numbering, V domains shown)
VH: QVQLVESGGGLVQPGRSLRLSCAASGFTFSNAWMHWVRQAPGKGLEWVAQIKDKGNAYAAYYAPSVKGRFTISRDDSKNSIYLQMNSLKTEDTAVYYCHYVHYASASTVSPAFGVDAWGQGTTVTVSS
VL: DIVMTQSPLSLPVTPGEPASISCQASQELVHMNRNTYLHWYQQKPGQAPRLLIYKVSNRFPGVPDRFSGSGSGTDFTLKISRVEAEDVGVYYCAQGTSVPFTFGQGTKLEIK
B16: dBBDu183H L100dT/dBBDu072L (antibody, name in Kabat numbering, V domains shown)
VH: QVQLVESGGGLVQPGRSLRLSCAASGFTFSNAWMHWVRQAPGKGLEWVAQIKDKGNAYAAYYAPSVKGRFTISRDDSKNSIYLQMNSLKTEDTAVYYCHYVHYASASTVTPAFGVDAWGQGTTVTVSS
VL: DIVMTQSPLSLPVTPGEPASISCQASQELVHMNRNTYLHWYQQKPGQAPRLLIYKVSNRFPGVPDRFSGSGSGTDFTLKISRVEAEDVGVYYCAQGTSVPFTFGQGTKLEIK
B17: dBBDu183H L100dV/dBBDu072L (antibody, name in Kabat numbering, V domains shown)
VH: QVQLVESGGGLVQPGRSLRLSCAASGFTFSNAWMHWVRQAPGKGLEWVAQIKDKGNAYAAYYAPSVKGRFTISRDDSKNSIYLQMNSLKTEDTAVYYCHYVHYASASTVVPAFGVDAWGQGTTVTVSS
VL: DIVMTQSPLSLPVTPGEPASISCQASQELVHMNRNTYLHWYQQKPGQAPRLLIYKVSNRFPGVPDRFSGSGSGTDFTLKISRVEAEDVGVYYCAQGTSVPFTFGQGTKLEIK
B18: dBBDu183H L100dW/dBBDu072L (antibody, name in Kabat numbering, V domains shown)
VH: QVQLVESGGGLVQPGRSLRLSCAASGFTFSNAWMHWVRQAPGKGLEWVAQIKDKGNAYAAYYAPSVKGRFTISRDDSKNSIYLQMNSLKTEDTAVYYCHYVHYASASTVWPAFGVDAWGQGTTVTVSS
VL: DIVMTQSPLSLPVTPGEPASISCQASQELVHMNRNTYLHWYQQKPGQAPRLLIYKVSNRFPGVPDRFSGSGSGTDFTLKISRVEAEDVGVYYCAQGTSVPFTFGQGTKLEIK
B19: dBBDu183H L100dY/dBBDu072L (antibody, name in Kabat numbering, V domains shown)
VH: QVQLVESGGGLVQPGRSLRLSCAASGFTFSNAWMHWVRQAPGKGLEWVAQIKDKGNAYAAYYAPSVKGRFTISRDDSKNSIYLQMNSLKTEDTAVYYCHYVHYASASTVYPAFGVDAWGQGTTVTVSS
VL: DIVMTQSPLSLPVTPGEPASISCQASQELVHMNRNTYLHWYQQKPGQAPRLLIYKVSNRFPGVPDRFSGSGSGTDFTLKISRVEAEDVGVYYCAQGTSVPFTFGQGTKLEIK
B20: dBBDu183H P61D/dBBDu072L (antibody, name in Kabat numbering, V domains shown)
VH: QVQLVESGGGLVQPGRSLRLSCAASGFTFSNAWMHWVRQAPGKGLEWVAQIKDKGNAYAAYYADSVKGRFTISRDDSKNSIYLQMNSLKTEDTAVYYCHYVHYASASTVLPAFGVDAWGQGTTVTVSS
VL: DIVMTQSPLSLPVTPGEPASISCQASQELVHMNRNTYLHWYQQKPGQAPRLLIYKVSNRFPGVPDRFSGSGSGTDFTLKISRVEAEDVGVYYCAQGTSVPFTFGQGTKLEIK

Target: T1, Human CD3eg linker (human)
T1 construct: single-chain construct; also called recombinant human CD3
T1 chain: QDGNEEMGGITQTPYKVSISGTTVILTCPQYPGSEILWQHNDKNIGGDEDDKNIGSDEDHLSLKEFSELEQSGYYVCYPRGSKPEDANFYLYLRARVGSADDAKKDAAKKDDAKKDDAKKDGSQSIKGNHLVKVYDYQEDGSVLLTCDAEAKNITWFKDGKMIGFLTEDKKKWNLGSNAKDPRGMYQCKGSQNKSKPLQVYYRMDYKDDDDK
Experiment: SPR, vs unmutated H183/L072

Point of comparison: B14, “fold change of affinity” value 1.8 fold. Against it:
- B1 — lower, 1 fold
- B2 — lower, 1.1 fold
- B3 — lower, 1.1 fold
- B4 — lower, 1 fold
- B5 — lower, 1 fold
- B6 — lower, 1 fold
- B7 — lower, 0.7 fold
- B8 — lower, 1.3 fold
- B9 — higher, 2 fold
- B10 — lower, 1.3 fold
- B11 — the same, 1.8 fold
- B12 — lower, 1.2 fold
- B13 — lower, 1.1 fold
- B15 — lower, 1.2 fold
- B16 — lower, 1.3 fold
- B17 — lower, 1 fold
- B18 — lower, 1.7 fold
- B19 — lower, 1.4 fold
- B20 — higher, 1.9 fold
